US20140072613A1, “Compositions and Methods for Treating Cutaneous Scarring” (priority 2012, published 2014)

How the values were obtained:
Assay in all cases: cell-based or functional assay
[1] = biological target: DMPK(h) (human) (UniProt Q09013)
[2] = biological target: T1, BrSK1(h) (human) (UniProt Q8TDC3)
T1 sequence (looked up): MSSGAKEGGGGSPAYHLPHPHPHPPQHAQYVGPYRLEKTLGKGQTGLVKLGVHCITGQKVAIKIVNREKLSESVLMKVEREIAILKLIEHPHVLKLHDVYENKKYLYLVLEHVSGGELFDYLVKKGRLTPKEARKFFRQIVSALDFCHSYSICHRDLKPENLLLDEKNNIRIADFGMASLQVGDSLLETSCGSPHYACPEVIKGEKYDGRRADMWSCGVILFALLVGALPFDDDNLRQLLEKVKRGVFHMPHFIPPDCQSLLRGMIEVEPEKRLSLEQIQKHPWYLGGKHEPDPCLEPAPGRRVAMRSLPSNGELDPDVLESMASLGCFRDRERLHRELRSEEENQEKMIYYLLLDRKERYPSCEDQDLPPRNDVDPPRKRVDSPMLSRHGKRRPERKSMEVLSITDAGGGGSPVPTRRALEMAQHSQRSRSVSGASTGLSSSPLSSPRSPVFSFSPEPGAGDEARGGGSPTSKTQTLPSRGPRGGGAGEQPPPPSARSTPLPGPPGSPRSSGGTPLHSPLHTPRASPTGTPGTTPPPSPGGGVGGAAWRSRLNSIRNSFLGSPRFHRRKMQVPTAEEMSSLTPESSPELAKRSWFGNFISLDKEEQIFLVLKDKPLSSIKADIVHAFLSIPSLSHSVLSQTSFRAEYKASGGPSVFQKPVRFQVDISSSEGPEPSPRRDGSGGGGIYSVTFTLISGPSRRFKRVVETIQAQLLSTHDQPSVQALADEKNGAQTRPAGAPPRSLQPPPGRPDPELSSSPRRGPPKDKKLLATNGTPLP

[3] = biological target: PKCβI(h) (human) (UniProt P05771)
Chain of PKCβI(h) (human) (P05771 whole entry): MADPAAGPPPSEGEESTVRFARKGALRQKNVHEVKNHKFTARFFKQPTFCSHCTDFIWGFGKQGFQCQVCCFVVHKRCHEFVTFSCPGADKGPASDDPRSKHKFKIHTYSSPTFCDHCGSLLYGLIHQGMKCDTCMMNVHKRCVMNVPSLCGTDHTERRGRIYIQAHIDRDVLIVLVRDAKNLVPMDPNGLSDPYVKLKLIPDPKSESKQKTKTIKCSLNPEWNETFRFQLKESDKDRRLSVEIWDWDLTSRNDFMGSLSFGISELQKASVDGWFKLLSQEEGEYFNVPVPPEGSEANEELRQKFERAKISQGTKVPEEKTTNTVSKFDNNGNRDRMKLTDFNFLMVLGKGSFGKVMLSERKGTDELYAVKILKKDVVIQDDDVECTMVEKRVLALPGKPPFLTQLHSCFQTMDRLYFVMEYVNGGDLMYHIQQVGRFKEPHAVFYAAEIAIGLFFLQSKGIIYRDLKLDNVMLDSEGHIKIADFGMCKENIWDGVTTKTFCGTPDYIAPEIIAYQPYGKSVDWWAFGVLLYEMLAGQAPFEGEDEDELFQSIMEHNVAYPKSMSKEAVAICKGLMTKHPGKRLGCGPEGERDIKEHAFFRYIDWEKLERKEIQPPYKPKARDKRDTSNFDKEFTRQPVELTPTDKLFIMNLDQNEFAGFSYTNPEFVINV

[4] = biological target: CDK9/cyclin T1(h) (human) (UniProt P50750)
[5] = biological target: SIK(h) (human) (UniProt P57059)
Chain of SIK(h) (human) (P57059 whole entry): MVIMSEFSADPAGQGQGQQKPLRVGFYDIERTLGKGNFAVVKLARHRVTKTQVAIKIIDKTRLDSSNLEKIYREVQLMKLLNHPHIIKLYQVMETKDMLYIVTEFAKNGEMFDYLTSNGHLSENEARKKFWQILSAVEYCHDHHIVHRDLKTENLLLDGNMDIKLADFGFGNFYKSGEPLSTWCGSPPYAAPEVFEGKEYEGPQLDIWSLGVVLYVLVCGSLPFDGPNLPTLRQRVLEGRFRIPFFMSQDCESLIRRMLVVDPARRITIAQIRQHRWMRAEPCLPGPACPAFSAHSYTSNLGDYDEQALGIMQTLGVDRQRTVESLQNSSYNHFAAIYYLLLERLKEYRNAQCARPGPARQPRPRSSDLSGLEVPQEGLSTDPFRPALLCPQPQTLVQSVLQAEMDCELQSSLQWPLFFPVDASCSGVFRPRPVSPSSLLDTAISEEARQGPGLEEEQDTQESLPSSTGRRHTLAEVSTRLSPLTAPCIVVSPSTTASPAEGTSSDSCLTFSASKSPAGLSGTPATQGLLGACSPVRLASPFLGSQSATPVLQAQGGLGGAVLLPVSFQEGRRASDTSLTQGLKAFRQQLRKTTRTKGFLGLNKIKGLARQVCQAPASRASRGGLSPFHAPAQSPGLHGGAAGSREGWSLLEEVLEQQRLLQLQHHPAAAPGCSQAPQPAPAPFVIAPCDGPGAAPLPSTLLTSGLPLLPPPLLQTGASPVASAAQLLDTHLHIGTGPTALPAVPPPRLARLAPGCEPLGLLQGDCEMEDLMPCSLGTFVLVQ

[6] = biological target: T2, ULK3(h) (human) (UniProt Q6PHR2)
T2 sequence (looked up): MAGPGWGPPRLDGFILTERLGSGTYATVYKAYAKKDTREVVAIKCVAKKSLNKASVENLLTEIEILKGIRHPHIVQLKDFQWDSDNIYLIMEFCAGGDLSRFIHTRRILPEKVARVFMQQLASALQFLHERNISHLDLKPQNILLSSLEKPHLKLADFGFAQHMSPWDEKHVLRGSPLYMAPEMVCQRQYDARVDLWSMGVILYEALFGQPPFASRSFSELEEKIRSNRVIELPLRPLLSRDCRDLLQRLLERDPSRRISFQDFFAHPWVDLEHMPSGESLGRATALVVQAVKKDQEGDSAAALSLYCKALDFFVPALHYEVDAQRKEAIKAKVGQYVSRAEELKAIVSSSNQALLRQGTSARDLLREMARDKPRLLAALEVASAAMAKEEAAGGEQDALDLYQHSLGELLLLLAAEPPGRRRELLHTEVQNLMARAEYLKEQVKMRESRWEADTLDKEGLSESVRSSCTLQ

[7] = biological target: MAPK2(h) (human) (UniProt P28482)
[8] = biological target: PAK2(h) (human) (UniProt Q13177)
Chain of PAK2(h) (human) (Q13177 whole entry): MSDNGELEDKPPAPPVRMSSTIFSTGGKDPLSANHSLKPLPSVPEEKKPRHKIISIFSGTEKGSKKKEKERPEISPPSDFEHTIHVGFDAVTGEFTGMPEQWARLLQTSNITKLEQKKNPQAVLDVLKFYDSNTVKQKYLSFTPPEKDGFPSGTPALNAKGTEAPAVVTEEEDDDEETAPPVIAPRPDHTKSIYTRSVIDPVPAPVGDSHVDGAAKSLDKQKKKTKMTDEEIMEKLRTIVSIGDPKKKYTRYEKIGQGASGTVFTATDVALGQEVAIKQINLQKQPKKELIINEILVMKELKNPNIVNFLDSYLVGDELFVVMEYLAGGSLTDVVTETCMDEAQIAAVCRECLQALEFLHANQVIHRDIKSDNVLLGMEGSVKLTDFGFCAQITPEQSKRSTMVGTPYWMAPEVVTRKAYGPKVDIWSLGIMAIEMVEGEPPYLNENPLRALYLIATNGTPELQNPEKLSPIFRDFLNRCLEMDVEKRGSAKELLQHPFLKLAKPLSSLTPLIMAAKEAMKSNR

[9] = biological target: Abl(H8396P)(h) (human) (UniProt P00519)
Chain of Abl(H8396P)(h) (human) (P00519 27-1130, stated change not applied): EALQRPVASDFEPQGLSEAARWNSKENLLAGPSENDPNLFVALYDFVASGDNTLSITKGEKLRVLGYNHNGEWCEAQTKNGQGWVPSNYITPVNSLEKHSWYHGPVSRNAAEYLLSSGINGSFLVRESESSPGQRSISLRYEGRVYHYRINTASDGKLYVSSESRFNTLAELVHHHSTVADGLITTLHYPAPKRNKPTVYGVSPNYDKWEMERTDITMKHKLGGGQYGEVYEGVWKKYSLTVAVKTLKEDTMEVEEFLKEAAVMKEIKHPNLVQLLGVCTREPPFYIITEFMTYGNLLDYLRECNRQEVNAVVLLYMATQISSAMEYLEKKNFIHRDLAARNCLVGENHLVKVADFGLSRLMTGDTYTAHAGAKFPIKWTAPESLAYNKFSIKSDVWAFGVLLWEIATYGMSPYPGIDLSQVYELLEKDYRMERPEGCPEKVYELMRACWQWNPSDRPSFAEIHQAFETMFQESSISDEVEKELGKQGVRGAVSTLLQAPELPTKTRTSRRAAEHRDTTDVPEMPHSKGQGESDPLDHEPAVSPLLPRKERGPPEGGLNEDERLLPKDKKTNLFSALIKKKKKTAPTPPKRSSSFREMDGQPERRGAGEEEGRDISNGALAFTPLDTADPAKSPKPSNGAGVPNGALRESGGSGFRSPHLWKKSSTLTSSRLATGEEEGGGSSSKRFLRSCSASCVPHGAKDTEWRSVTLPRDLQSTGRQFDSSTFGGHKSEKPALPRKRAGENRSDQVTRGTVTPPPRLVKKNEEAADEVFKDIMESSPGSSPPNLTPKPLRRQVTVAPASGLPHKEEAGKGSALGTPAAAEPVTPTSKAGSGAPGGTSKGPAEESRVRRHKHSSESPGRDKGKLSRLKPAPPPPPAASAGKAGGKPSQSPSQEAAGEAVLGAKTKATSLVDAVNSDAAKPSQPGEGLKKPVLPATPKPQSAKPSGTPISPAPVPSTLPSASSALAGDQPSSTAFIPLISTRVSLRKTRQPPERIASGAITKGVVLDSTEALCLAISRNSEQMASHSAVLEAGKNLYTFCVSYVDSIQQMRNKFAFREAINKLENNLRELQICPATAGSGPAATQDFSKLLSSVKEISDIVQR

[10] = biological target: Met(Y1248C)(h) (human) (UniProt P08581)
[11] = biological target: FGFR4(h) (human) (UniProt P22455)
[12] = biological target: GSK3α(h) (human) (UniProt P49840)
[13] = biological target: 6SK3β(h) (human) (UniProt P49841)
[14] = biological target: PKCγ(h) (human) (UniProt P05129)
[15] = biological target: LOK(h) (human) (UniProt O94804)
Chain of LOK(h) (human) (O94804 1-348 limits assumed): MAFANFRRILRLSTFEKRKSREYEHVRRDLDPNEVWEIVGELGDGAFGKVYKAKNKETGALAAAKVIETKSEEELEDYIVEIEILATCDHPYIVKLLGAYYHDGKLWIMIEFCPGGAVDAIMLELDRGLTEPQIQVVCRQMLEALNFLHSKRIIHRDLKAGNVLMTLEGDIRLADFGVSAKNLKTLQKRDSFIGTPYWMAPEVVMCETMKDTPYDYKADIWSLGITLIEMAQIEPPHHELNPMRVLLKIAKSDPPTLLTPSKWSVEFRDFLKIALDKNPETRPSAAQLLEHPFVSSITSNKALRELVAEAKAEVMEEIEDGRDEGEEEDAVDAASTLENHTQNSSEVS

[16] = biological target: PDGFRα(h) (human) (UniProt P16234)
[17] = biological target: NEK6(h) (human) (UniProt Q9HC98)
Chain of NEK6(h) (human) (Q9HC98 whole entry): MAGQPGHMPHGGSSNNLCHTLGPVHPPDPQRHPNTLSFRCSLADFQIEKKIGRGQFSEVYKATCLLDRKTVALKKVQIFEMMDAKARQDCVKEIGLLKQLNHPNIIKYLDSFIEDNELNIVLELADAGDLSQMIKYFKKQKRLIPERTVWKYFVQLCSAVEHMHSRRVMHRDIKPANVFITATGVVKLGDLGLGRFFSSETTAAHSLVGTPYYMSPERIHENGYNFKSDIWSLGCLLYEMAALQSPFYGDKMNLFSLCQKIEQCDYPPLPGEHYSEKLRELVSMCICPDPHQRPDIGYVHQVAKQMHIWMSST

[18] = biological target: CK2(h) (human)
[19] = biological target: T3, Ret(h) (human) (UniProt P07949)
T3 sequence (looked up): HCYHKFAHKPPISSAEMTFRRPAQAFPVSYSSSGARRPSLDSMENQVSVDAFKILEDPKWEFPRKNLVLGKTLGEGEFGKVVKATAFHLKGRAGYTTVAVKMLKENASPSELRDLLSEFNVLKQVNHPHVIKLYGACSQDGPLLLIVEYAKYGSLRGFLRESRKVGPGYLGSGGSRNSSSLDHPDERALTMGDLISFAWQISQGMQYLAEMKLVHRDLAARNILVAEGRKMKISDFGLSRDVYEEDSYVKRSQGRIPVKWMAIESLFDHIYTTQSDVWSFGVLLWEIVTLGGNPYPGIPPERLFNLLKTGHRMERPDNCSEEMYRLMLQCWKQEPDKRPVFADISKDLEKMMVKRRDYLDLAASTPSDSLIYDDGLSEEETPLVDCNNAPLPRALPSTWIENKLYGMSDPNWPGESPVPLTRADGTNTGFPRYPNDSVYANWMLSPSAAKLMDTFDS

[20] = biological target: cSRC(h) (human) (UniProt P12931)
[21] = biological target: MSK2(h) (human) (UniProt O75676)
[22] = biological target: WNK3(h) (human) (UniProt Q9BYP7)
[23] = biological target: CaMKIIγ(h) (human) (UniProt Q13555)
[24] = biological target: FAK(h) (human) (UniProt Q05397)
Chain of FAK(h) (human) (Q05397 whole entry): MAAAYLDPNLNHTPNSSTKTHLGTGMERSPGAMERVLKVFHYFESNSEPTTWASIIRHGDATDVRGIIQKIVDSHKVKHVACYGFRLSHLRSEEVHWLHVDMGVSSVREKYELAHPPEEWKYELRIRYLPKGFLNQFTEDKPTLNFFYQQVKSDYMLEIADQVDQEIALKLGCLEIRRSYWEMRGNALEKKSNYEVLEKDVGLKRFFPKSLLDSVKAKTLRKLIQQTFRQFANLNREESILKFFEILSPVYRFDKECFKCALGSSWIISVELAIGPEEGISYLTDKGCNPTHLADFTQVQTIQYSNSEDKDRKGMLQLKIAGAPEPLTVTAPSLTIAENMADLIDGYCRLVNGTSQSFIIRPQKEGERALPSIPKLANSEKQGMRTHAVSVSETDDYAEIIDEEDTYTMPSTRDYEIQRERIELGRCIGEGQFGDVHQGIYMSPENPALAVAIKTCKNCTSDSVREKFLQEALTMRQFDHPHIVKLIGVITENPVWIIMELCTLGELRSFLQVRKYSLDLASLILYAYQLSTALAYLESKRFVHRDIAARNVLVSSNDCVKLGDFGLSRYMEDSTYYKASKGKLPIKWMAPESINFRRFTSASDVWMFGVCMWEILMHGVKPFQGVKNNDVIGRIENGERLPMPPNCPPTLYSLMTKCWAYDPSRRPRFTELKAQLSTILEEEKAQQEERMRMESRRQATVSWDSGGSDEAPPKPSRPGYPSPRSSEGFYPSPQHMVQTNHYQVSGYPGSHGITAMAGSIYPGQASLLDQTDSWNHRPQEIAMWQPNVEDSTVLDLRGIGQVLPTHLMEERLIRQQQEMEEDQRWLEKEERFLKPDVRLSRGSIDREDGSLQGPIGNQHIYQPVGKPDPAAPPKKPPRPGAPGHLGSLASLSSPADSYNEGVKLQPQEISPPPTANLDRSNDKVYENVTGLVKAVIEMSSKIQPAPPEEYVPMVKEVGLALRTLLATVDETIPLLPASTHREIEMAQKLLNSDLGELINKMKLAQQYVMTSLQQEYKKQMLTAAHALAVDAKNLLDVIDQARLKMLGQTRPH

% activity, 100 µM [1]: 12%
% activity, 100 µM [2]: 72%
% activity, 100 µM [3]: 1%
% activity, 100 µM [4]: 6%
% activity, 100 µM [5]: 40%
% activity, 100 µM [6]: 177%
% activity, 100 µM [7]: 60%
% activity, 100 µM [8]: 44%
% activity, 100 µM [9]: 51%
% activity, 100 µM [10]: 73%
% activity, 100 µM [11]: 3%
% activity, 100 µM [12]: 175%
% activity, 100 µM [13]: 238%
% activity, 100 µM [14]: 6%
% activity, 100 µM [15]: 7%
% activity, 100 µM [16]: 40%
% activity, 100 µM [17]: 49%
% activity, 100 µM [18]: 93%
% activity, 100 µM [19]: 174%
% activity, 100 µM [20]: 30%
% activity, 100 µM [21]: 14%
% activity, 100 µM [22]: 9%
% activity, 100 µM [23]: 3%
% activity, 100 µM [24]: 94%
Substance: MMI-0500 (peptide)
